Test results taken from a protein production outcome set (Wang et al. 2014).

assay: label from the status in PepcDB records

| Sequence | protein production |
| --- | --- |
| MSDPYPATEAHAQRAAKSPPKSLLDRLLSLVRREPEDREGIKAILEAAHERELLDAESYAMIKGALAVSERTVADIMVPRSRMDLLDISQPLPQLLATIIETAHSRFPVYEDDRDNIIGILLAKDLLRYMLEPALDIRSLVRPAVFIPEVKRLNVLLREFRASRNHLAIVIDEHGGISGLVTMEDVLEQIVGDIEDEFDEDEEESIFPEGENQWRLTASTDISHFNATFATDLPDDEYDSVGGWLGGQLGRIPRRGDSADHDGLHIEVVRADARRALWLRVRRNAGAQPPASAAE | not failed |
| MSDQDVNPEHISDAQPAGTGLVLPGQTLPTTLYVIPIHNRPFFPAQVLPVIVNEEPWAETLELVAKTDHHSLALFFMDNPPEDPRHFDVNSLPEHGTLVRVHHASREGGKLQFVAQGLSRVRIRGWIKRHRPPFMVEVDYPKTPIDPSDEVKAYGMALINAIKELLPLNPLYSEELKNYLNRFSPNDPSPLTDFAAALTTAPGGELQEVLDTVPILKRMEKVLPLLRKEVEVARLQKELSAEVNRKIGEHQREFFLKEQLKIIQQELGITKDDKSADADEFRARLEGKVLPEQARKRIDEELNKLSILESGSPEYAVTRNYLDWATALPWGVYGKDKLDLKHARKVLDKHHAGLDDIKDRILEFLAVGSFKGEIAGSIVLLVGPPGVGKTSIGKSIAESLGRPFYRFSVGGMRDEAEIKGHRRTYIGALPGKLVQALKEVEVMNPVIMLDEIDKLGASYQGDPASALLETLDPEQNVEFLDHYLDLRLDLSKVLFVCTANTLDSIPGPLLDRMEVIRLSGYISEEKLAIAKRHLWPKQLEKAGVPKGRLSISDAALRAVIEGYAREAGVRQLEKQLGKLVRKSVVKLLEDPESKVKIGPRDLEDYLGMPVFRSEQVLSGIGVITGLAWTSMGGATLPIEATRIHTLNRGFKLTGQLGDVMKESAEIAYSYIGSHLKKYGGDPTFFDQAFVHLHVPEGATPKDGPSAGVTMASALLSLARNQVPKKGVAMTGELTLTGQVLPIGGVREKVIAARRQKIFELILPEANRGHFEELPDYLREGLTVHFAKRYGDVAKVLF | failed |
| MSDRLGIFFSGLCFVHCLATPILLIFLGTNSLASVLETPLFHRLLLLPVLTMAIFQGYYAWKNPQAKLSRVLLPLGCLAVVIAQFFHGPIEILLTIIGSLTLISGHFFHLKHEHCADQN | failed |
| MSDSAIGVGYAADNPGWLIGMSETQERLQRLRAQAASLVFYAGILESATGRAFLELLDALSHQQPLAAVTAYSTWLGHLLASRQSWPQWLMHHIRSDDNPFSRQAQFAIASSLPEVWQQSACQDLQTLQQLASAPPRLLAPMVQALADLPTPPPHWLEETRDREAQWAETEDWAMLLPDLIQHYQQRGVGFFNRYWALRWQQGQLHGIEHPDPIPLSDLAGYELQKETLKRNTEFLLAGLPAQNVLLYGSCGAGKSSMVKALINAYGDRGLRLIEVGKADLRELPQILDQLRESALSFIVFVDDLSFEEDDETFKALKVVLEGGLTARPPNVVVYATSNRRHLVREYFDERPNPTEANEVHAWDSVQEKLSFSDRFGLTLTFEPADQDTYLAIVRHLASEVGLTMPLETLEFRARQWATRHNGRSGRTARQFMDWLIAEQSLPNPL | failed |
| MSDSLVVCEVDPELKETLRKFRFRKETNNAAIIMKVDKDRQMVVLEDELQNISPEELKLELPERQPRFVVYSYKYVHDDGRVSYPLCFIFSSPVGCKPEQQMMYAGSKNRLVQTAELTKVFEIRTTDDLTETWLKEKLAFFR | not failed |
| MSDTLRPYKNLFPGIGQRVMIDTSSVVIGDVRLADDVGIWPLVVIRGDVNYVAIGARTNIQDGSVLHVTHKSSSNPHGNPLIIGEDVTVGHKVMLHGCTIGNRVLVGMGSIVLDGAIIEDDVMIGAGSLVPQHKRLESGYLYLGSPVKQIRPLSDAERSGLQYSANNYVKWKDDYLSQDNHIQP | not failed |
| MSDTNSGGGRQAASGPAPRGRLPFRRRVALVAVARPLIVTVGLVTAYYLLPLDERLSAGTLVSLVCGLLAVLLVFCWEVRAITRSPHPRLRAIEGLAATLVLFLVLFAGSYYLLGRSAPGSFSEPLNRTDALYFTLTTFATVGFGDITARSETGRILTMAQMTGGLLLVGVAARVLASAVQAGLHRQGRGPAASPRSGAAEEPEAGP | failed |
| MSDTRRCVVIPAVKKNAVIPDQLVKRLAGVTLIQRAIDTAKALAPGDDIVVVTDSQEIALICERNGVRHVCNPGLHLATLDIVRELRGVLEDLARSYGHIVIYRASCPLLTADDIEDAYATFLREGADCLVTVKSVRHRVWEKRNGGLDALLSQDETEPSIYVESKALVMLDASALTRGEVRKVVPYFLNDRAIEINSYQDWWICEKLLCRKHIVFVVAGYPAIGMGHIFRALMLAHEVADHRITFLCTRESELAASNIAARDYRTRVQQGDDLAADVLSLRPDLVINDILNTDADYVGRLREAGVRVVNFEDEGPGAHLADLVVNALYEEKVDDPRFLHGHRFFCLRDEFVNGVRNDYRDPVRCVLVTFGGTDHSDFSRGTLDAIEPLCRERGITIRLVAGPGYAHKDAMQEHVERLGSPLVEFTYATNVMSRMMEGADLAICSAGRTVYELAHMRVPAIVMAHHEREGRHTFARGRNGFAYLGVMEHFDGAKLTRVFTQLLDAGNRRRLFDRQARFDFIRNKADVVRRITALLDDTPAPENA | failed |
| MSDVAATAQRQQVRQQGLILGLVTLPFRCFGVLCGSLFLCIVIECIGMALFWPDQGWRHAQAMLGHELDQLSDYFVRSALVQEPGRTAHQWIQHAYEWAFVRSGLLEWMQDASRQARAGASGRPWSLPQVLATVSMHAEGYLIAAAYTVLLFLVRLLMLCLTLPLFALAAFVGLVDGLVRRDIRRFGAGRESGFLYHRARASLVPLAVLPWVTYLALPVRVHPVVILLPSAVLLGVAVDIAAGSFKKYL | failed |
| MSDVTGDLAAVSEAKGGSDAARISEVKAWLTSQFEAVGKEVPNFEYTHRSITHLYNLATASQAKSQAATIVANDFRLKASEYRAQAARIREILESAGMSQESLPSNVVSSAQVLANVANLLNIRDTELSRILAQLEDDVVPCESQMENWKTNLEVMAVKEEQYIQQYKKYEMLLNRVGYTPKISHRELVEMAEHRKELDKMTKPVLDTLRSYQDLPPDKALAALAIEDKKRQFTAAEKYLEEVLQSALETNDE | failed |
| MSEATILVSGATGRTGGAAIDELLKSGKQVRAYVRSNDDRAAAFRKRGVEVAIGDFTGIDDIRAAMEGVTSAYFLHPIAPGIIGAAAYFAQAAKEAGVSAIVNMSQISARRESASHAAQDHWISERVFDWSGVATTHLRPTFFADWLVYPHFAKEIWAKKKIEFPFENGRHAPIATDDQGRVIAHILANPEGHGGKTYTLTGPIELNHTEIAAAMSEVLGAKIEYAPTSIDEFRNKMENVYKFPPFLTQHLVEVAQNYRDGIFSGANDAVEKITGTPALSVQQFIAQNRAVFA | failed |
| MSEEIVLKAGGKIYQGWTKIGITRSLEAMSGAFDLEMTYKFLGNDAQYKAFIEPIKQGQACTVDIGGERVITGYVDDWVPSYDESTITISVSGRDKTADLVDCSIDYPSGQFNNQTLTQIADIVCKPFGIKVIVNTDVGEPFQRIQIEQGETPHELLARLAKQRGVLLTSDTFGNLVITRASKTKAGVSLILGDNVKAARGRFSWRQRFSKFTIKAAGAAHGQWDSAGLPTVGGIKADVTDSEIGRYRPLIIVNEEVTTAEGAAKRGQWERQRSIGKSNMAEYTVTGWRIPQTGKLWNINTLVPVIDEIMGLDEEMLIASILFSEDDAGRLAVISVVRPDAMDIPAQIVKDTKLGGSTW | not failed |
| MSEFLALFSAMWKESWRDKISTFFSIAFPVMFLLIFGFLFGGSGNSVKTAVVTVDYDLSDFGDVYTSLEELKGYYHEVAVVEKERIIFIRNTTDEYYQSLLDSWEISLKNKVTRLLNGLNPVIMVKKEVLKTARELTSFDYTLTGVIAVSLLSIGLFGTVDVFSRYRERGFLKRLKATPVGNFSFVFGLISARMFYGILSTALIMLLGTLIFKASYELNVFLFLISVVSSVLSFIALGALISILFKKSDVATDAAVILFTIMMFLTGVYFPVSFLPDYLRVVSYFLPVKYGVELIRYSLGFEIFPFSRYLITAVIMFLAGLMFVFYTASLVLRKED | failed |
| MSEGSNVLVSIILVNYNGADILPDCLNSIDKFISKDNCEILLVDNASQDNSYELVAQDFPDVKIVRLPKNYGFGAGNNAGAKIAKGKFLLLLNTDTILTTNILPHLIDLMRENPDVGIIGTKLVFPDETFQISFAYTIGIKGEYKSRKLHEYAEDKSKLNSLEQEFNTIKEVDIVVGAALFIRADLFHSVGGFDEKFFIYFEDADLCRRVQNQGYKILYTPQVSLIHIRGHSMKKNANATVVEYRRSQLYYYKKHCPVWERIILRIYLFAKFLPEFLATRNPYSLEIIKLLFVIA | failed |
| MSEIDANYRALAQQVADKVAGRVIALDRLPESLLTAYRSLCDELLADRDGRFTRAWDQLPDSASSLFERCVFHGFYLANAWIQLSIVARDISELQDTDEAIAEQEYSGLYVRVAEAALKESVKKLKKARTDRSMYNSMREVMGI | not failed |
| MSEIIIQNLISPVVLFFLLGIIAATFKSDLQFPKGLTEALSMYLLIAIGIKGGIELSHYHLEAVIGPVIGTIFLGMLIPVIVLMITRLFMKVDLKNSIALAATYGSTSIVTYGAAVSFLEKSGTTYEGFMNAMVVLKESPAILVSLLLLSIIERQQAVPTTLSSKRVGIVSGHQGLIDKEVLKESFFGKSIILLLGSLIIGLVVGERAIPMVQPLFIDLYQSVLILFLLYMGLTVGERLPEVKKHGIKLILFGVLTPILLGALGVLVGTLAGLSVGGATLMGILAGSASYIAAPAALRTSVPEANPSIYLGLSLGVTFPFNLIFGIPLYFEFAKLLH | failed |
| MSELARLRQKVSDGLGLATPAADPADKTTRLANEEHASDVRAVALYVAISLSVGAFAAALIALAVPYAVTVVLACFFGAVLMGALFYALFGKSFPLPGTLPADYSDVRLRQTQNRSLIAEMQESMGDIVVIRNMNRRIVEANRVFREMTGCTSPEGLSCEEIGIAFRPGDRVHAYDVEIATPFGQRIFSWHDVVTRDLASSRLMISSIARDVTEERLALAEREDARLRAEKADAEKARLLATVSHEIRLPLSGMLGMNHLLSQTKLNQEQRNYLDGMKQSGQSLVQLVEDLLDYSTMEAGRFRLNPRAENLRRLIESIVEMLAHRAHEKGIEIASFVTPDVPDYLDFDPARLRQVLFNLIGNAVKFTQVGGVVIRARMVDGELQITVEDTGPGMSEAEQARIFGEFEQAGPLSQRSAGTGLGLAISARIVREFGGNLTVSSRRGEGSTFKLVFRPGRAPAEMPDSGRSHCLQHTNVLLIAPEGVAAAVTMEAIEAFGGKCILIHQPEDLDRLRNEPVSRTADLTDIIVDLRISALFRDALRDWPQQTIRRTLLVSPEERASTTHASFDAWLIRPLREKSLIDVLCGRLRGIERRDAINDNHPDVGFSSRVVERASGVEILVAEDDAVNARIIRAVLEKSGYIVRAVDNFQALQQSVASGASRLPNLIVSDLNMPGGEGLDVLPDLLGKLKDERNIPVIILSGDAGAGTAEILLKAGAGAVLAKPADPRRLVEEIRRLLEAKRVLSS | failed |
| MSELIAQLLVYIKGIWKYRWASVATAWTVAIAGWFFVYQMPDNYQASARIYVDTQSILRPLMAGMTVSPNPDQQITIMSRTLISRPNVERIIRMVDLDIKITDDSAREKLVTTLMKDIKLSTTGSDNIFMISYDNKDPRLAKDIVQSLLTIFVEGGLEGKKQDSASALRFIDQQIAAYEEKLVAAEAALTAFKQKNIGFLPGQGGDYYSQLVSAAEELEKARLTLLEAEQARDAVKKQITGDEPVLLFEVGEVSPQSIVNPEIDSRIQALNTNLDNLMLNFTDQHPDVVATKRLIAQLEERKVEEAKLAGTVNNRGRNYDPMMQQLNIALAESEAQVASMKARVAEYEARFERLKSMSNTVPAVEVEMQQLNRDYNVNKANYEKLLERRASAEISGELTSTSGLMSFRIVDPPTVPEAPSGPDRKKFFTLVLIGALAGGIGFAFIISQIRPTFHSQSTLRELTGLPILGTIPMVWTEQQKLKDKRKIYAFGISLLMLMACYVVLMIYVKPHGMTAA | failed |
